From patent US20250320281A1

Legend:
Assay in all cases: cell-based or functional assay
[1] = target: HIV-1 92RW020 Env (HIV-1 92RW020)
[2] = target: HIV-1 APV13 envelope glycoprotein (Env) on pseudovirus (HIV-1)
[3] = target: HIV-1 MGRM-AG-005 envelope glycoprotein (Env) on pseudovirus (HIV-1)
[4] = target: HIV-1 MGRM-C-027 envelope glycoprotein (Env) on pseudovirus (HIV-1)
[5] = target: HIV-1 JRFL envelope glycoprotein (Env) on pseudovirus (HIV-1)
[6] = target: HIV-1 MGRM-D-018 envelope glycoprotein (Env) on pseudovirus (HIV-1)
[7] = target: HIV-1 MGRM-D-001 envelope glycoprotein (Env) on pseudovirus (HIV-1)
[8] = target: HIV-1 Env of pseudovirus 92UG031 (subtype A) (HIV-1)
[9] = target: HIV-1 Env of isolate MGRM-Chronic-B-010 (HIV-1)
[10] = target: HIV-1 Env of isolate MG RM-D-012 (clade D), on pseudovirus (HIV-1)
[11] = target: HIV-1 Env of isolate MGRM-Chronic-B-023 (HIV-1)
[12] = target: HIV-1 Env of isolate MG RM-D-026 (clade D), on pseudovirus (HIV-1)
[13] = target: HIV-1 Env of isolate MGRM-F1-012 (clade F), on pseudovirus (HIV-1)
[14] = target: HIV-1 Env of isolate MGRM-C-024 (clade C pseudovirus) (HIV-1)
[15] = target: HIV-1 Env of isolate MGRM-F1-013 (clade F), on pseudovirus (HIV-1)
[16] = target: HIV-1 Env of isolate MG RM-D-019 (clade D), on pseudovirus (HIV-1)
[17] = target: HIV-1 Env of isolate MGRM-C-027 (clade C pseudovirus) (HIV-1)
[18] = target: HIV-1 Env of isolate MGRM-Chronic-B-018 (HIV-1)
[19] = target: HIV-1 Env of pseudovirus 92RW008 (subtype A) (HIV-1)
[20] = target: HIV-1 Env of isolate MG RM-D-020 (clade D), on pseudovirus (HIV-1)
[21] = target: HIV-1 Env of isolate MGRM-F1-018 (clade F pseudovirus) (HIV-1)
[22] = target: HIV-1 Env of isolate MG RM-D-002 (clade D), on pseudovirus (HIV-1)
[23] = target: HIV-1 Env of isolate MG RM-D-014 (clade D), on pseudovirus (HIV-1)
[24] = target: HIV-1 Env of isolate MGRM-Chronic-B-008 (HIV-1)
[25] = target: HIV-1 Env of isolate MG RM-D-028 (clade D), on pseudovirus (HIV-1)
[26] = target: HIV-1 Env of pseudovirus MGRM-A-009 (subtype A) (HIV-1)
[27] = target: HIV-1 Env of isolate MG RM-D-011 (clade D), on pseudovirus (HIV-1)
[28] = target: HIV-1 Env of isolate MGRM-Chronic-B-017 (HIV-1)
[29] = target: HIV-1 Env of pseudovirus 92WR026 (subtype A) (HIV-1)
[30] = target: HIV-1 Env of pseudovirus 92WR020 (subtype A) (HIV-1)
[31] = target: HIV-1 Env of isolate MG RM-D-004 (clade D), on pseudovirus (HIV-1)
[32] = target: HIV-1 Env of isolate MGRM-C-025 (clade C pseudovirus) (HIV-1)
[33] = target: HIV-1 Env of pseudovirus 93WR029 (subtype A) (HIV-1)
[34] = target: HIV-1 Env of isolate MG RM-D-008 (clade D), on pseudovirus (HIV-1)
[35] = target: HIV-1 Env of isolate MGRM-F1-016 (clade F), on pseudovirus (HIV-1)
[36] = target: HIV-1 Env of pseudovirus 94UG103 (subtype A) (HIV-1)
[37] = target: HIV-1 Env of isolate APV6 (HIV-1)
[38] = target: HIV-1 Env of isolate MGRM-F1-006 (clade F), on pseudovirus (HIV-1)
[39] = target: HIV-1 Env of isolate MG RM-D-024 (clade D), on pseudovirus (HIV-1)
[40] = target: HIV-1 92UG024 Env (HIV-1)

Sequence of 1443_C16 (PG16) (TCN-116) (antibody) (VH): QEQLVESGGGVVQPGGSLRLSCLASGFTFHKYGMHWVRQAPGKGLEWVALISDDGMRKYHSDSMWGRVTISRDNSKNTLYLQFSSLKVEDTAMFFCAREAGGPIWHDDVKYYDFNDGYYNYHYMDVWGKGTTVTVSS
Sequence of 1443_C16 (PG16) (TCN-116) (antibody) (VL): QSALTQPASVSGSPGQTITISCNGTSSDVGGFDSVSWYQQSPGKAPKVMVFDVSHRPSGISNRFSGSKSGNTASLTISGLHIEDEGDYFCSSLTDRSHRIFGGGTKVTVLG

In the case of 1443_C16 (PG16) (TCN-116) (antibody), the IC50 (ug/ml), pseudovirus neutralization, TZM-bl assay [1] is reported as 0.09 µg/mL.
In the case of 5141_B17 (PGT-126) (antibody), the IC50, pseudovirus neutralization [2] is reported as 0.012 µg/mL, the IC80 (pseudovirus neutralization) [2] is reported as 0.0411 µg/mL and the IC90 (pseudovirus neutralization) [2] is reported as 0.084 µg/mL. The IC95 (pseudovirus neutralization) [2] was 0.162 µg/mL, the IC50, pseudovirus neutralization [3] was 1.35 µg/mL and the IC80 (pseudovirus neutralization) [3] was greater than 10 µg/mL. The IC90 (pseudovirus neutralization) [3] was greater than 10 µg/mL, the IC95 (pseudovirus neutralization) [3] was greater than 10 µg/mL and the IC50, pseudovirus neutralization [4] was 1.14 µg/mL. It also gave an IC80 (pseudovirus neutralization) [4] greater than 10 µg/mL, an IC90 (pseudovirus neutralization) [4] greater than 10 µg/mL and an IC95 (pseudovirus neutralization) [4] greater than 10 µg/mL. The IC50, pseudovirus neutralization [5] was 0.014 µg/mL, the IC80 (pseudovirus neutralization) [5] was 0.0454 µg/mL and the IC90 (pseudovirus neutralization) [5] was 0.09 µg/mL. The IC95 (pseudovirus neutralization) [5] was 0.169 µg/mL, the IC50, pseudovirus neutralization [6] was 9.3 ng/mL and the IC80 (pseudovirus neutralization) [6] was 0.0391 µg/mL. The IC90 (pseudovirus neutralization) [6] was 0.0918 µg/mL, the IC95 (pseudovirus neutralization) [6] was 0.205 µg/mL and the IC50, pseudovirus neutralization [7] was 0.0639 µg/mL. The IC80 (pseudovirus neutralization) [7] was 0.333 µg/mL, the IC90 (pseudovirus neutralization) [7] was 0.832 µg/mL and the IC95 (pseudovirus neutralization) [7] was 1.8 µg/mL.
In the case of 4858_P08 (PGT-123) (antibody), the neutralization IC50 [2] is reported as 0.222 µg/mL, the neutralization IC80 [2] is reported as 0.879 µg/mL and the neutralization IC90 [2] is reported as 1.87 µg/mL. The neutralization IC95 [2] was 3.5 µg/mL, the neutralization IC50 [3] was 0.104 µg/mL and the neutralization IC80 [3] was 1.28 µg/mL. For the same substance, the neutralization IC90 [3] was 6.38 µg/mL, the neutralization IC95 [3] was greater than 10 µg/mL and the neutralization IC50 [4] was 0.0169 µg/mL. The neutralization IC80 [4] was 0.149 µg/mL, the neutralization IC90 [4] was greater than 10 µg/mL and the neutralization IC95 [4] was greater than 10 µg/mL. For the same substance, the neutralization IC50 [5] was 0.0283 µg/mL, the neutralization IC80 [5] was 0.0904 µg/mL and the neutralization IC90 [5] was 0.178 µg/mL. The neutralization IC95 [5] was 0.332 µg/mL, the neutralization IC50 [6] was 4.7 ng/mL and the neutralization IC80 [6] was 0.0175 µg/mL. The neutralization IC90 [6] was 0.0381 µg/mL, the neutralization IC95 [6] was 0.0791 µg/mL and the neutralization IC50 [7] was 0.215 µg/mL. The neutralization IC80 [7] was 0.678 µg/mL, the neutralization IC90 [7] was 1.31 µg/mL and the neutralization IC95 [7] was 2.33 µg/mL.
Substance PGV04 (antibody) has an IC50, pseudovirus neutralization [8] of 4.46 µg/mL, an IC50 (µg/mL), pseudovirus neutralization [9] of 0.744 µg/mL and an IC50 (µg/mL), pseudovirus neutralization [10] of 0.125 µg/mL. It also gave an IC50 (µg/mL), pseudovirus neutralization [11] of 0.139 µg/mL, an IC50 (µg/mL), pseudovirus neutralization [12] of 1.76 µg/mL and an IC50 (µg/mL), pseudovirus neutralization [13] of 0.25 µg/mL. It also gave an IC50 (µg/mL), pseudovirus neutralization [14] greater than 50 µg/mL, an IC50 (µg/mL), pseudovirus neutralization [15] of 0.084 µg/mL and an IC50 (µg/mL), pseudovirus neutralization [16] of 0.35 µg/mL. The IC50 (µg/mL), pseudovirus neutralization [17] was 2.76 µg/mL, the IC50 (µg/mL), pseudovirus neutralization [18] was 0.164 µg/mL and the IC50, pseudovirus neutralization [19] was 14 ng/mL. It also gave an IC50 (µg/mL), pseudovirus neutralization [20] of 0.097 µg/mL, an IC50 (µg/mL), pseudovirus neutralization [21] of 0.027 µg/mL and an IC50 (µg/mL), pseudovirus neutralization [22] of 0.322 µg/mL. It also gave an IC50 (µg/mL), pseudovirus neutralization [23] of 0.194 µg/mL, an IC50 (µg/mL), pseudovirus neutralization [24] of 0.166 µg/mL and an IC50 (µg/mL), pseudovirus neutralization [25] of 1.01 µg/mL. For the same substance, the IC50, pseudovirus neutralization [26] was 0.033 µg/mL, the IC50 (µg/mL), pseudovirus neutralization [27] was 0.025 µg/mL and the IC50 (µg/mL), pseudovirus neutralization [28] was 0.129 µg/mL. It also gave an IC50, pseudovirus neutralization [29] of 0.14 µg/mL, an IC50, pseudovirus neutralization [30] of 0.055 µg/mL and an IC50 (µg/mL), pseudovirus neutralization [31] of 43.2 µg/mL. For the same substance, the IC50 (µg/mL), pseudovirus neutralization [32] was greater than 50 µg/mL, the IC50, pseudovirus neutralization [33] was 0.54 µg/mL and the IC50 (µg/mL), pseudovirus neutralization [34] was 3.56 µg/mL. It also gave an IC50 (µg/mL), pseudovirus neutralization [35] of 0.268 µg/mL, an IC50, pseudovirus neutralization [36] of 0.202 µg/mL and an IC50 (µg/mL), pseudovirus neutralization [37] of 24.2 µg/mL. The IC50 (µg/mL), pseudovirus neutralization [38] was greater than 50 µg/mL and the IC50 (µg/mL), pseudovirus neutralization [39] was greater than 50 µg/mL.
4877_D15 (PGT-122) (antibody) was tested, and the Neutralization by PGT-122, IC50 [40] was greater than 10 µg/mL, the Neutralization by PGT-122, IC80 [40] was greater than 10 µg/mL and the Neutralization by PGT-122, IC90 [40] was greater than 10 µg/mL. For the same substance, the Neutralization by PGT-122, IC95 [40] was greater than 10 µg/mL.
For 1496_C09 (PG9) (TCN-109) (antibody), the IC50, pseudovirus neutralization [8] was 3.6 µg/mL, the IC50 (µg/mL), pseudovirus neutralization [9] was 0.004 µg/mL and the IC50 (µg/mL), pseudovirus neutralization [10] was 16.2 µg/mL. For the same substance, the IC50 (µg/mL), pseudovirus neutralization [11] was 0.027 µg/mL, the IC50 (µg/mL), pseudovirus neutralization [12] was 23.7 µg/mL and the IC50 (µg/mL), pseudovirus neutralization [13] was 0.023 µg/mL. The IC50 (µg/mL), pseudovirus neutralization [14] was 0.227 µg/mL, the IC50 (µg/mL), pseudovirus neutralization [15] was 1.25 µg/mL and the IC50 (ug/ml), pseudovirus neutralization, TZM-bl assay [1] was 0.1 µg/mL. For the same substance, the IC50 (µg/mL), pseudovirus neutralization [16] was 0.038 µg/mL, the IC50 (µg/mL), pseudovirus neutralization [17] was 5.36 µg/mL and the IC50 (µg/mL), pseudovirus neutralization [18] was 0.216 µg/mL. It also gave an IC50, pseudovirus neutralization [19] of 6 ng/mL, an IC50 (µg/mL), pseudovirus neutralization [20] of 1.67 µg/mL and an IC50 (µg/mL), pseudovirus neutralization [21] of 0.019 µg/mL. For the same substance, the IC50 (µg/mL), pseudovirus neutralization [22] was 0.021 µg/mL, the IC50 (µg/mL), pseudovirus neutralization [23] was 0.023 µg/mL and the IC50 (µg/mL), pseudovirus neutralization [24] was 8.78 µg/mL. The IC50 (µg/mL), pseudovirus neutralization [25] was 20.2 µg/mL, the IC50, pseudovirus neutralization [26] was 0.023 µg/mL and the IC50 (µg/mL), pseudovirus neutralization [27] was 0.071 µg/mL. It also gave an IC50 (µg/mL), pseudovirus neutralization [28] of 0.688 µg/mL, an IC50, pseudovirus neutralization [29] of 0.164 µg/mL and an IC50, pseudovirus neutralization [30] of 0.141 µg/mL. It also gave an IC50 (µg/mL), pseudovirus neutralization [31] of 0.06 µg/mL, an IC50 (µg/mL), pseudovirus neutralization [32] of 0.148 µg/mL and an IC50, pseudovirus neutralization [33] of 0.69 µg/mL. For the same substance, the IC50 (µg/mL), pseudovirus neutralization [34] was 11.5 µg/mL, the IC50 (µg/mL), pseudovirus neutralization [35] was 0.518 µg/mL and the IC50, pseudovirus neutralization [36] was 0.34 µg/mL. For the same substance, the IC50 (µg/mL), pseudovirus neutralization [37] was 0.181 µg/mL, the IC50 (µg/mL), pseudovirus neutralization [38] was 7.25 µg/mL and the IC50 (µg/mL), pseudovirus neutralization [39] was 0.038 µg/mL.
